Experiment [1] addresses human thrombin (human) (UniProt P00734).
Experiment [2] shares this target. Kind of experiment: enzyme inhibition kinetics (chromogenic substrate S-2238); 100 pM thrombin, 15 µM S-2238, sculptin 0-50 pM; 50 mM phosphate, 150 mM NaCl, 0.1% PEG 6000, pH 7.4, 37 °C; progress curves, kobs against sculptin concentration gives kon and koff; Ki = koff/kon.
For experiment [3] the target is unchanged. This is another data set of the same source.
Experiment [4] shares this target. Kind of experiment: enzyme inhibition kinetics (chromogenic substrate S-2238); 0.1 nM thrombin added to sculptin (0-80 pM) and S-2238 at different concentrations; 50 mM phosphate, 150 mM NaCl, 0.1% PEG 6000, pH 7.4, 37 °C; Hanes-Woolf plot, intercepts against inhibitor concentration, confirmed by non-linear regression for competitive inhibition.
For experiment [5] the target is unchanged. Kind of experiment: enzyme inhibition kinetics (chromogenic substrate S-2238); 0.1 nM thrombin, 15 µM S-2238, sculptin 0-500 pM; 50 mM phosphate, 150 mM NaCl, 0.1% PEG 6000, pH 7.4, 37 °C; fractional steady-state velocities fitted to Morrison's tight binding equation.

Consider recombinant sculptin (natural protein), for which the residual activity of thrombin (100 pM, chromogenic substrate) with 1 nM sculptin, 6 h at 37 °C with human thrombin (human) [1] was 97%. Also, in the experiment with human thrombin (human) [2], the inhibition constant (Ki) (commonly a measure of affinity in units of concentration, obtained from inhibition or displacement) was found to be 0.0161 nM; the koff (as a rule, the rate constant with which the complex falls apart) came out at 0.00065 s⁻¹; the on-rate constant (kon) (commonly the second-order rate constant of association) stood at 4.04e+07 M⁻¹ s⁻¹. In addition, in the experiment with human thrombin (human) [3], the IC50 of inhibition of thrombin (0.1 nM) hydrolysis of 15 µM S-2238, dose-response fit was determined as 0.0866 nM. The substance further yielded a Ki in the experiment with human thrombin (human) [4] of 0.0183 nM. This substance also yielded a Ki with human thrombin (human) [5] of 0.0195 nM.
